{"source": "patent US20250051474A1", "about": "“ANTI-CD97 ANTIBODIES AND ANTIBODY-DRUG CONJUGATES” (New York University, priority 2023, published 2025)", "key": {"[1]": {"molecular_target": "T1, CD97 (ADGRE5) isoform 2 ectodomain, purified and biotinylated (human, UniProt P48960 21-552, biotinylated in vitro using the BirA enzyme)", "T1 construct": "the whole entry for isoform 2 is named here; also called CD97 isoform 2", "T1 sequence": "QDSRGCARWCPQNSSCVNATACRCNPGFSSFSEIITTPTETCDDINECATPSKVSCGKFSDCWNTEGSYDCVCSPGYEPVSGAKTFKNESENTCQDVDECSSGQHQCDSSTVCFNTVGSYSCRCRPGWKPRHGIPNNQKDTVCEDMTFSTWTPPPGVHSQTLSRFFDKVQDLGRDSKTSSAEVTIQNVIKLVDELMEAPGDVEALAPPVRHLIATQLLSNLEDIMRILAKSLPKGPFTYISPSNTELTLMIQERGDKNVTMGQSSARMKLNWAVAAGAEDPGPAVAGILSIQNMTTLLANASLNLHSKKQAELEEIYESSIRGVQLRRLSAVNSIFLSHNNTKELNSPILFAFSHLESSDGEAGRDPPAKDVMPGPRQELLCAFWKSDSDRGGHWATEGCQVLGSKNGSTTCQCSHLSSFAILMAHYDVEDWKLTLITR", "assay": "bead-based binding titration (biotinylated antigen on streptavidin beads, flow cytometry), 1:1 fit"}, "[2]": {"molecular_target": "T2, CD97 (ADGRE5) isoform 1 ectodomain, purified and biotinylated (human, UniProt P48960 21-552, limits assumed, biotinylated in vitro using the BirA enzyme)", "T2 construct": "the whole entry for isoform 1 is named here; also called CD97 isoform 1; Biotinylated CD97 isoform 1", "T2 sequence": "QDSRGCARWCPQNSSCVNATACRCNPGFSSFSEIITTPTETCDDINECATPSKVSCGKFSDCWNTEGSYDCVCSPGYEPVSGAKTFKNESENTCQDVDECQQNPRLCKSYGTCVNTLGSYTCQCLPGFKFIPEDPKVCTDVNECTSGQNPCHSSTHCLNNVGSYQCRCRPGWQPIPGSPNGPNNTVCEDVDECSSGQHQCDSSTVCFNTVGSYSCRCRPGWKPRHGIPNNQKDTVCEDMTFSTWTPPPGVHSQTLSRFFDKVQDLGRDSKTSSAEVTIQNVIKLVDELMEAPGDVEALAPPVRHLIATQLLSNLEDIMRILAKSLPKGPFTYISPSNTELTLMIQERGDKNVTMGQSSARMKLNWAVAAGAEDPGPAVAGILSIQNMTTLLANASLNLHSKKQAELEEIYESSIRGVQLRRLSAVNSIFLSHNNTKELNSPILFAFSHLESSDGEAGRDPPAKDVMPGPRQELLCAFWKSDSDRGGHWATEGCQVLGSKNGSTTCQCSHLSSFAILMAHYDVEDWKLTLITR", "assay": "bead-based binding titration (biotinylated antigen on streptavidin beads, flow cytometry), 1:1 fit"}, "[3]": {"molecular_target": "T3, EMR2 (EGF-like module-containing mucin-like hormone receptor-like 2) isoform 4 ectodomain, purified and … (UniProt Q9UHX3-4 24-447, limits assumed, biotinylated in vitro using the BirA enzyme)", "T3 construct": "extracellular domain; Close homolog of CD97 used as specificity control", "T3 sequence (looked up)": "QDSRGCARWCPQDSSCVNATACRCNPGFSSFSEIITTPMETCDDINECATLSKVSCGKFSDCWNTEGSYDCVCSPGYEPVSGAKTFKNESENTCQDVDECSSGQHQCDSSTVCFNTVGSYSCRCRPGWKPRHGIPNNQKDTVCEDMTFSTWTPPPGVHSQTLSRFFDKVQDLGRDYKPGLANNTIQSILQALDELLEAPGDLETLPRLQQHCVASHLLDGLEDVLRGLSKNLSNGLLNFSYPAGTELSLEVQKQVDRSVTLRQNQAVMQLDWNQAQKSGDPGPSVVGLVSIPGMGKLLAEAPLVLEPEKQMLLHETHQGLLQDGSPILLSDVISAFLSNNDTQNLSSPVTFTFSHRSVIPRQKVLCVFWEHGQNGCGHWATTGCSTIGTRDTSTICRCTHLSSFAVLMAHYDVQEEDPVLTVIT", "assay": "bead-based binding titration (biotinylated antigen on streptavidin beads, flow cytometry), 1:1 fit"}, "[4]": {"molecular_target": "EMR2 (EGF-like module-containing mucin-like hormone receptor-like 2) isoform 1 ectodomain, purified and biotinylated (UniProt Q9UHX3)", "assay": "bead-based binding titration (biotinylated antigen on streptavidin beads, flow cytometry), 1:1 fit"}, "[5]": {"molecular_target": "T1, CD97 (ADGRE5) isoform 2 ectodomain, …", "assay": "bead-based binding titration (biotinylated antigen on streptavidin beads, flow cytometry), 1:1 fit [Continued]"}, "[6]": {"molecular_target": "T2, CD97 (ADGRE5) isoform 1 ectodomain, …", "assay": "bead-based binding titration (biotinylated antigen on streptavidin beads, flow cytometry), 1:1 fit [Continued]"}, "[7]": {"molecular_target": "T1, CD97 (ADGRE5) isoform 2 ectodomain, …", "assay": "bead-based binding titration (biotinylated antigen on streptavidin beads, flow cytometry) [Continued]"}, "[8]": {"molecular_target": "T3, EMR2 (EGF-like module-containing …)", "assay": "bead-based binding titration (biotinylated antigen on streptavidin beads, flow cytometry) [Continued]"}, "[9]": {"molecular_target": "T2, CD97 (ADGRE5) isoform 1 ectodomain, …", "assay": "bead-based binding assay: biotinylated CD97 isoform 1 on streptavidin beads, Fab titrated, flow cytometry MFI, 1:1 fit; EXPERIMENT 1"}, "[10]": {"molecular_target": "T2, CD97 (ADGRE5) isoform 1 ectodomain, …", "assay": "bead-based binding assay: biotinylated CD97 isoform 1 on streptavidin beads, Fab titrated, flow cytometry MFI, 1:1 fit; EXPERIMENT 2"}, "OCI-AML3 cells [11]": {"tested_on": "OCI-AML3 cells", "assay": "Cell viability assay (PrestoBlue) of ADC", "type": "cell-based, human", "conditions": "3 days incubation", "protocol": "(§1) For the cell viability assay, the cells were mixed with ADC (20,000 cells/well), and incubated at 37° C. with 5% CO2 for 3 days. After incubation, cell viability was assessed by PrestoBlue assay (Thermo Fisher), following the manufacturer's protocol. The fluorescence was measured using a FlexStation 3 multi-mode microplate reader (Molecular Devices). Dose-response curves and respective ECso were generated using Prism software (GraphPad). For the cell-killing assay, a 96-well plate was coated with 0.1% poly-D-lysine. The cells were mixed with a diluted Incucyte® Annexin V Green Dye (Sartorius) and ADC (13,500 cells/well), and incubated in an Incucyte live-cell analysis system (Sartorius) at 37° C. with 5% CO2 for 4 days. The percentage of dead cells was analyzed using Incucyte Software (Sartorious)."}, "AML cells": {"tested_on": "AML cells", "assay": "Cell viability assay (PrestoBlue), cell killing specificity", "type": "cell-based, human", "conditions": "cells with different CD97 levels", "protocol": "as §1"}, "[12]": {"tested_on": "human peripheral blood mononuclear cells (PBMCs)", "assay": "Cell-killing assay (Annexin V staining, Incucyte)", "type": "cell-based", "conditions": "4 days incubation", "protocol": "as §1"}, "OCI-AML3 cells [13]": {"tested_on": "OCI-AML3 cells", "assay": "Cell-killing assay (Annexin V staining, Incucyte)", "type": "cell-based, human", "protocol": "as §1"}, "[14]": {"molecular_target": "T2, CD97 (ADGRE5) isoform 1 ectodomain, …", "assay": "bead-based binding assay: biotinylated CD97 isoform 1 on streptavidin beads, Fab titrated, flow cytometry MFI; EXPERIMENT 1 and EXPERIMENT 2"}}, "note": "“Also recorded” adds a separate entry of the source."}
{"molecule": "Fab 2V10 (Fab, V domains shown, second discovery campaign; biotinylated Fab in the bead assay; same clone as m10 in Fab format; also called Antibody Clone 2V10) VH: EVQLVESGGGLVQPGGSLRLSCAASGFTISSSSIHWVRQAPGKGLEWVAYIYPSSGSTSYADSVKGRFTISADTSKNTAYLQMNSLRAEDTAVYYCARPWYYSTFNKKWWDYQGLDYWGQGTLVTVSS VL: DIQMTQSPSSLSASVGDRVTITCRASQSVSSAVAWYQQKPGKAPKLLIYSASSLYSGVPSRFSGSRSGTDFTLTISSLQPEDFATYYCQQSWWDPITFGQGTKVEIKR", "values": [{"measurement": "Kd", "setting": "[1]", "value": 3, "unit": "nM"}, {"measurement": "Kd", "setting": "[2]", "value": 2.7, "unit": "nM"}, {"measurement": "Kd", "setting": "[3]", "value": 1.5, "unit": "nM"}, {"measurement": "Kd", "setting": "[4]", "value": 1.6, "unit": "nM"}]}
{"molecule": "Fab 2W1 (Fab, V domains shown, second discovery campaign; biotinylated Fab in the bead assay; also called Antibody Clone 2W1) VH: EVQLVESGGGLVQPGGSLRLSCAASGFTVSSSSIHWVRQAPGKGLEWVAYISSSSGSTYYADSVKGRFTISADTSKNTAYLQMNSLRAEDTAVYYCARDFYFGSYYSFGWGLDYWGQGTLVTVSS VL: DIQMTQSPSSLSASVGDRVTITCRASQSVSSAVAWYQQKPGKAPKLLIYSASSLYSGVPSRFSGSRSGTDFTLTISSLQPEDFATYYCQQDSSYPITFGQGTKVEIKR", "values": [{"measurement": "Kd", "setting": "[1]", "value": 18, "unit": "nM"}, {"measurement": "Kd", "setting": "[2]", "value": 18, "unit": "nM"}, {"measurement": "Kd", "setting": "[3]", "value": 52, "unit": "nM"}, {"measurement": "Kd", "setting": "[4]", "value": 47, "unit": "nM"}]}
{"molecule": "Fab D25 (Fab, V domains shown, first discovery campaign; also called Antibody Clone D25) VH: EVQLVESGGGLVQPGGSLRLSCAASGFTFSSSSIHWVRQAPGKGLEWVASISPYYGSTSYADSVKGRFTISADTSKNTAYLQMNSLRAEDTAVYYCARKLEWGMFFWSPYFRALDYWGQGTLVTVSS VL: DIQMTQSPSSLSASVGDRVTITCRASQSVSSAVAWYQQKPGKAPKLLIYSASSLYSGVPSRFSGSRSGTDFTLTISSLQPEDFATYYCQQSSSSLITFGQGTKVEIKR", "values": [{"measurement": "Kd", "setting": "[5]", "value": 14, "unit": "nM"}, {"measurement": "Kd", "setting": "[6]", "value": 14, "unit": "nM"}]}
{"molecule": "Antibody clone C27, Fab format (Fab, V domains shown) VH: EVQLVESGGGLVQPGGSLRLSCAASGFTLSSSSIHWVRQAPGKGLEWVASIYSYYGSTYYADSVKGRFTISADTSKNTAYLQMNSLRAEDTAVYYCARYRGNMYYWESWYGSYWALDYWGQGTLVTVSS VL: DIQMTQSPSSLSASVGDRVTITCRASQSVSSAVAWYQQKPGKAPKLLIYSASSLYSGVPSRFSGSRSGTDFTLTISSLQPEDFATYYCQQSSSSLITFGQGTKVEIKR", "values": [{"measurement": "Kd", "setting": "[6]", "value": 16, "unit": "nM"}, {"measurement": "binding result", "setting": "[7]", "value": "no binding (tested: 50 nM)"}, {"measurement": "binding result", "setting": "[8]", "value": "no binding (tested: 50 nM)"}]}
{"molecule": "N100bHE (Fab, V domains shown, also called A8 N100bHE; Antibody Clone A8 N100bHE; copies: 1 + 1) VH: EVQLVESGGGLVQPGGSLRLSCAASGFTISSYSIHWVRQAPGKGLEWVASISPYYGSTSYADSVKGRFTISADTSKNTAYLQMNSLRAEDTAVYYCARSWYYYEQEPYWYQKEEQALDYWGQGTLVTVSS VL: DIQMTQSPSSLSASVGDRVTITCRASQSVSSAVAWYQQKPGKAPKLLIYSASSLYSGVPSRFSGSRSGTDFTLTISSLQPEDFATYYCQQSVYSPVTFGQGTKVEIK", "values": [{"measurement": "Kd", "setting": "[9]", "value": 160, "unit": "nM"}, {"measurement": "Kd", "setting": "[10]", "value": 150, "unit": "nM"}]}
{"molecule": "A8-MMAF (conjugate, non-natural residues) VH: EVQLVESGGGLVQPGGSLRLSCAASGFTISSYSIHWVRQAPGKGLEWVASISPYYGSTSYADSVKGRFTISADTSKNTAYLQMNSLRAEDTAVYYCARSWYYYEQNPYWYQKEEQALDYWGQGTLVTVSS VL: DIQMTQSPSSLSASVGDRVTITCRASQSVSSAVAWYQQKPGKAPKLLIYSASSLYSGVPSRFSGSRSGTDFTLTISSLQPEDFATYYCQQSVYSPVTFGQGTKVEIKRTV", "values": [{"measurement": "cell killing (cell viability)", "setting": "OCI-AML3 cells [11]", "value": "potently killed OCI-AML3 cells in a dose-dependent manner; also recorded: potent cell-killing effect on OCI-AML3 cells"}, {"measurement": "cell killing specificity versus cell-surface CD97 level", "setting": "AML cells", "value": "correlated with the cell-surface CD97 level; also recorded: inhibited cell growth only for the cells expressing a high level of CD97"}]}
{"molecule": "A8S293C-PBD (conjugate) VH: EVQLVESGGGLVQPGGSLRLSCAASGFTISSYSIHWVRQAPGKGLEWVASISPYYGSTSYADSVKGRFTISADTSKNTAYLQMNSLRAEDTAVYYCARSWYYYEQNPYWYQKEEQALDYWGQGTLVTVSS VL: DIQMTQSPSSLSASVGDRVTITCRASQSVSSAVAWYQQKPGKAPKLLIYSASSLYSGVPSRFSGSRSGTDFTLTISSLQPEDFATYYCQQSVYSPVTFGQGTKVEIKRTV", "values": [{"measurement": "killing of PBMC cells", "setting": "[12]", "value": "did not kill PBMC cells"}, {"measurement": "cell-killing effect (cell death, Annexin V)", "setting": "OCI-AML3 cells [13]; 4 days incubation", "value": "potent cell-killing effect"}, {"measurement": "specificity of cell killing", "setting": "OCI-AML3 cells [13]; OCI-AML3 (hCD97 high) versus ExpiCHO (hCD97-null), 4 days", "value": "specifically killed cells expressing high levels of CD97"}]}
{"molecule": "W100eHA (Fab, V domains shown, also called A8 W100eHA; Antibody Clone A8 W100eHA; copies: 1 + 1) VH: EVQLVESGGGLVQPGGSLRLSCAASGFTISSYSIHWVRQAPGKGLEWVASISPYYGSTSYADSVKGRFTISADTSKNTAYLQMNSLRAEDTAVYYCARSWYYYEQNPYAYQKEEQALDYWGQGTLVTVSS VL: DIQMTQSPSSLSASVGDRVTITCRASQSVSSAVAWYQQKPGKAPKLLIYSASSLYSGVPSRFSGSRSGTDFTLTISSLQPEDFATYYCQQSVYSPVTFGQGTKVEIK", "values": [{"measurement": "binding result", "setting": "[14]", "value": "no binding"}]}
